The target in this test is T1, MBP-JAZ9-8×His (recombinant, E. coli-expressed) (Arabidopsis, UniProt Q8W4J8 1-267, limits assumed).
T1 construct: procedure cited from Katsir et al. 2008; also called Escherichia coli-expressed JAZ9 protein
T1 sequence: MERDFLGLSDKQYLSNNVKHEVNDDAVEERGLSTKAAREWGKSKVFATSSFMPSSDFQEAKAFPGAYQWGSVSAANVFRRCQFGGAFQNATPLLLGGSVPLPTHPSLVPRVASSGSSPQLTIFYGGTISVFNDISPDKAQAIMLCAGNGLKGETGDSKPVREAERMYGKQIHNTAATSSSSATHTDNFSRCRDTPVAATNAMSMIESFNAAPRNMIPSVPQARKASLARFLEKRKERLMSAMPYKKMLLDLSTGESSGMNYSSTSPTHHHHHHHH
Put plainly: Ni-resin pull-down of plant-expressed COI1-4×c-Myc with MBP-JAZ9-8×His, COR series, anti-c-Myc immunoblot. In general terms: A western blot detects proteins with antibodies after separation by electrophoresis.

Procedure: Pull-down assays were performed with protein extracts from 4-mg pCOI1:COI1WT/A384V-4×c-Myc plants and 25 μg recombinant MBP-JAZ9-8×His. […] Eighty microliters of Ni resin (Invitrogen) were added, followed by an additional 15-min incubation period at 4° C. MBP-JAZ9-8×Hisbound Ni resin was washed three times on microcentrifuge spin columns with 0.25 mL binding buffer at 4° C. MBP-JAZ9-8×His was eluted from the resin with 100 μL of 300 mM imidazole. Proteins bound to MBP-JAZ9-8×His were analyzed by immunoblotting for the presence of COI1WT/A384V-4×c-Myc using anti-cMyc antibody. MBP-JAZ9-8×His recovered by the Ni affinity resin was detected by Coomassie blue staining.

B1: COI1A384V-4×c-Myc (plant-expressed) (receptor, not shown: small tags and cut ends)
chain: MEDPDIKRCKLSCVATVDDVIEQVMTYITDPKDRDSASLVCRRWFKIDSETREHVTMALCYTATPDRLSRRFPNLRSLKLKGKPRAAMFNLIPENWGGYVTPWVTEISNNLRQLKSVHFRRMIVSDLDLDRLAKARADDLETLKLDKCSGFTTDGLLSIVTHCRKIKTLLMEESSFSEKDGKWLHELAQHNTSLEVLNFYMTEFAKISPKDLETIARNCRSLVSVKVGDFEILELVGFFKAAANLEEFCGGSLNEDIGMPEKYMNLVFPRKLCRLGLSYMGPNEMPILFPFAAQIRKLDLLYALLETEDHCTLIQKCPNLEVLETRNVIGDRGLEVLAQYCKQLKRLRIERGADEQGMEDEEGLVSQRGLIALAQGCQELEYMVVYVSDITNESLESIGTYLKNLCDFRLVLLDREERITDLPLDNGVRSLLIGCKKLRRFAFYLRQGGLTDLGLSYIGQYSPNVRWMLLGYVGESDEGLMEFSRGCPNLQKLEMRGCCFSERAIAAAVTKLPSLRYLWVQGYRASMTGQDLMQMARPYWNIELIPSRRVPEVNQQGEIREMEHPAHILAYYSLAGQRTDCPTTVRVLKEPI
notes: In protein extracts of transgenic Arabidopsis (coi1-30 background); C-terminal 4×c-Myc tag; also called pCOI1:COI1A384V-4×c-Myc
For B1, the “fold higher COR concentration required for robust co-receptor formation, against COI1WT-JAZ9” value is around 100 fold.
